We go through six variants from FireProtDB (doi:10.1006/jmbi.1995.0324).

B1: Subtilisin inhibitor, P01006 (parent)
chain: MRNTGAGPSPSVSRPPPSAAPLSGAALAAPGDAPSALYAPSALVLTVGKGVSATTAAPERAVTLTCAPGPSGTHPAAGSACADLAAVGGDLNALTRGEDVMCPMVYDPVLLTVDGVWQGKRVSYERVFSNECEMNAHGSSVFAF

The data set covers variants of B1. Particulars: Streptomyces albogriseolus, Thermal, DSC, reversible: yes, structure 3SSI, whole UniProt chain shown; for ddG of mutation (higher = less stable) / unfolding free energy: 82.21 °C.

For the variant V44F, where the note is “pH 7, phosphate 25 mM”, the “ddG of mutation (higher = less stable)” value is 5.69 kcal/mol; the unfolding free energy was 0.34 kcal/mol; the Tm (in general, the temperature at which the thermal transition is half complete) was 69.1 °C; the “change of melting temperature, mutant - wild type (higher = more stable)” value (“change of melting temperature, mutant” for short) was -13.5 °C. In addition, the “unfolding enthalpy (calorimetric)” value (pH 7, phosphate 25 mM) was 168 kcal/mol. Also, under “pH 9.5, glycine 25 mM”, the “ddG of mutation (higher = less stable)” value turned out to be 5.33 kcal/mol; the unfolding free energy amounted to 0.71 kcal/mol; the midpoint of thermal melting (Tm) was found to be 68.3 °C; the “change of melting temperature, mutant” value is -12.4 °C. In addition, the “unfolding enthalpy (calorimetric)” value (pH 9.5, glycine 25 mM) turned out to be 164 kcal/mol.

V44A: where the note is “pH 9.5, glycine 25 mM”, the Tm was 67 °C; the “change of melting temperature, mutant” value was -13.7 °C; the “unfolding enthalpy (calorimetric)” value was determined as 190 kcal/mol.

Regarding V44G, where the note is “pH 7, phosphate 25 mM”, the Tm amounted to 54.5 °C; the “change of melting temperature, mutant” value was -27.7 °C; the “unfolding enthalpy (calorimetric)” value turned out to be 162 kcal/mol. Where the note is “pH 9.5, glycine 25 mM”, the Tm was 55.3 °C; the “change of melting temperature, mutant” value was -25.4 °C; the “unfolding enthalpy (calorimetric)” value was 158 kcal/mol.

In the case of V44M, for the setting “pH 7, phosphate 25 mM”, the “ddG of mutation (higher = less stable)” value stood at 5.92 kcal/mol; the unfolding free energy came to 0.11 kcal/mol; the Tm came out at 69.6 °C; the “change of melting temperature, mutant” value is -12.6 °C. The “unfolding enthalpy (calorimetric)” value (pH 7, phosphate 25 mM) amounted to 181 kcal/mol. For the setting “pH 9.5, glycine 25 mM”, the “ddG of mutation (higher = less stable)” value is 5.43 kcal/mol; the unfolding free energy was 0.61 kcal/mol; the Tm came out at 69 °C; the “change of melting temperature, mutant” value was -11.7 °C. The “unfolding enthalpy (calorimetric)” value (pH 9.5, glycine 25 mM) amounted to 176 kcal/mol.

In the case of V44I, where the note is “pH 7, phosphate 25 mM”, the “ddG of mutation (higher = less stable)” value stood at 0.84 kcal/mol; the unfolding free energy came out at 5.19 kcal/mol; the Tm came to 79.8 °C; the “change of melting temperature, mutant” value is -2.4 °C. Moreover, the “unfolding enthalpy (calorimetric)” value (pH 7, phosphate 25 mM) is 182 kcal/mol. Also, under “pH 9.5, glycine 25 mM”, the “ddG of mutation (higher = less stable)” value was found to be 0.94 kcal/mol; the unfolding free energy was determined as 5.1 kcal/mol; the Tm amounted to 78.9 °C; the “change of melting temperature, mutant” value is -1.83 °C. Moreover, the “unfolding enthalpy (calorimetric)” value (pH 9.5, glycine 25 mM) was 178 kcal/mol.

With V44L, where the note is “pH 7, phosphate 25 mM”, the Tm was found to be 77.7 °C; the “change of melting temperature, mutant” value is -4.5 °C; the “unfolding enthalpy (calorimetric)” value worked out at 175 kcal/mol. Under “pH 9.5, glycine 25 mM”, the “ddG of mutation (higher = less stable)” value came out at 2.52 kcal/mol; the unfolding free energy worked out at 3.52 kcal/mol; the Tm is 75.4 °C; the “change of melting temperature, mutant” value was -5.3 °C. For the setting “pH 9.5, glycine 25 mM”, the “unfolding enthalpy (calorimetric)” value was found to be 170 kcal/mol.
